Test results as given in patent publication US20170137533A1 (published 2017).

Key:
Assay in all cases: ForteBio
SC16.39 = target: SC16.39
SC16.51 = target: SC16.51
SC16.46 = target: SC16.46
Chain of SC16.46 (Q9NYJ7 27-492): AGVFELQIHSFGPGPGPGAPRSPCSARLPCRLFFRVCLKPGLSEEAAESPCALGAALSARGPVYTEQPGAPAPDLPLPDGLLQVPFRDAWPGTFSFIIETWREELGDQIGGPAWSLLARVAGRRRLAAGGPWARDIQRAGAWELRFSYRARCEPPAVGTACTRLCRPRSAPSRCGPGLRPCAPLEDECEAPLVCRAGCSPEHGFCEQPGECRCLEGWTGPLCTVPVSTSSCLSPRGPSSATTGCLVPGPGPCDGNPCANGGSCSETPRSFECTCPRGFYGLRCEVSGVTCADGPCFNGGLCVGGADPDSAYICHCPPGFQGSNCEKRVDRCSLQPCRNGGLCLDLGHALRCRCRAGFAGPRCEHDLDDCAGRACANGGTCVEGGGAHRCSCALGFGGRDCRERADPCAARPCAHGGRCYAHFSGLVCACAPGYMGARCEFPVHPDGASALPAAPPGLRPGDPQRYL

Chain of SC16.51 (Q9NYJ7 27-492): as above
Chain of SC16.39 (Q9NYJ7 27-492): as above

Kd (SC16.39): 1 nM
Kd (SC16.51): 2 nM
Kd (SC16.46): 0.5 nM
B1: DLL3 (ligand)
chain: not shown
